Substrate: O=[N+]([O-])c1ccc(O)cc1
Assay: cells, lysate or membranes named
Conditions: other: PNPH; CI 95% confidence interval; pH 7.4; 37.0 °C
Experimental: Briefly, liver samples were homogenised in 10 mM Tris-HCl, 250 mM sucrose (pH7.4) and centrifuged for 10 minutes at 10.000×g. Afterwards, CaCl2 to a final concentration of 8 mM was added to the supernatant, and the samples were centrifuged at 25.000×g for 30 minutes. The protein concentrations of the microsomal fraction (pellet) were determined with a commercially available kit (Bio-Rad laboratories) according to the manufacturer's instructions and bovine serum albumin was used as standard. The prepared microsomes were diluted to a final protein concentration of 4 mg/ml and stored at –80°C before analysis. All procedures were done on ice.
Briefly, microsomes were incubated together with the appropriate type of substrate and NADPH at 37°C. The resulting production of resorufin or p-nitrochetecol was measured by HPLC. For studying inhibition, steroids were additionally added to the microsomes. Inhibition studies were performed using a pool of microsomes from three male pigs. […] All steroids were dissolved in methanol. The final concentration of methanol was below 0.1% in the reaction volumes. The same amount of methanol was added to the blank incubations. For the kinetic studies, the activities were determined with substrate concentrations ranging from 0.1 to 4.0µM for EROD and MROD, and from 0.01 to 2mM for PNPH. Kinetic studies were performed under linear conditions. […]

B1: CYP2E1 (Sus scrofa) (protein)
chain: MTALGITVALLVWLVTLLLISIWKHIHSSWKLPPGPFPLPIVGNIFQLDLKNIPKSFTMLAERYGPVFTVYLGSRRIVVLHGYKAVKEVLLHYKNEFSGRGEIPTFQVHKDKGVIFNNGPTWRDTRRFSLTTLRDFGMGKQGNEQRIQREAHFLLEALRKTHGQPFDPTFLIGCAPCNVISDILFRQHFDYNDKTCLRLMSMFNENFYLLSTGWIQLYNNFSGYLRYLPGSHRKLMKNISEIKDYALERVKDHRDSLEPSCPRDFTDTLLMEMEKEKYSAEPIYTLDNIAVTVADMFFAGTETTSTTLRYGLLILMKYPEVEEKLHEEIDRVIGPNRIPAIKDRLVMPYLDAVVHEIQRFIDLIPSNLPHEATRDTDFRDYIIPKGTVVIPTLDSVLYDSQEFPEPEKFKPEHFLNENGKFKYSDHFKAFSAGKRVCVGEGLARMELFLFMAAILQHFNLKSLVDPKDIDLSPIAIGFAKIPPHYKLCVIPRSQV
Km: 0.33 (0.214–0.452) µM
